Reference: the supplement of paper PMC9112550, “Optimization of the antimicrobial peptide Bac7 by deep mutational scanning” (BMC Biology, 2022)

System: Escherichia coli TOP10
Assay: shrunken log2 fold change of peptide-encoding DNA abundance (4.5 h post-induction vs induction); higher = less antimicrobial activity (less host growth inhibition)
Settings: time post-induction: 4.5 h; library: site-saturation at positions 5, 18, 19, 20
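Further: peptides expressed intracellularly from a pBAD plasmid library in pooled LB shake-flask culture, induced with 0.3% L-arabinose, DNA abundance read by NGS, three biological replicates, DESeq2 with apeglm shrinkage.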

Row | Sequence | shrunken log2 fold change
1 | RRIRPRPPRLPRPRPRPWVHPRP | -0.0708
2 | RRIRPRPPRLPRPRPRPWVIPRP | 0.0892
3 | RRIRPRPPRLPRPRPRPWVLPRP | -0.0962
4 | RRIRPRPPRLPRPRPRPWWEPRP | 0.0134
5 | RRIRPRPPRLPRPRPRPWYTPRP | -0.0297
6 | RRIRPRPPRLPRPRPRPYCSPRP | -0.294
7 | RRIRPRPPRLPRPRPRPYCVPRP | -0.479
8 | RRIRPRPPRLPRPRPRPYDHPRP | -0.0209
9 | RRIRPRPPRLPRPRPRPYDKPRP | -0.512
10 | RRIRPRPPRLPRPRPRPYEQPRP | -0.116
11 | RRIRPRPPRLPRPRPRPYEYPRP | -0.314
12 | RRIRPRPPRLPRPRPRPYFAPRP | -0.0984
13 | RRIRPRPPRLPRPRPRPYFKPRP | -0.796
14 | RRIRPRPPRLPRPRPRPYFMPRP | -0.555
15 | RRIRPRPPRLPRPRPRPYHKPRP | -1.15
16 | RRIRPRPPRLPRPRPRPYKQPRP | -0.777
17 | RRIRPRPPRLPRPRPRPYKRPRP | -0.345
18 | RRIRPRPPRLPRPRPRPYKTPRP | 0.001
19 | RRIRPRPPRLPRPRPRPYMTPRP | -0.227
20 | RRIRPRPPRLPRPRPRPYSKPRP | -0.868
21 | RRIRPRPPRLPRPRPRPYTQPRP | -0.608
22 | RRIRPRPPRLPRPRPRPYVHPRP | -0.356
23 | RRIRPRPPRLPRPRPRPYWTPRP | -0.68
24 | RRIRPRPPRLPRPRPRPYYHPRP | -0.794
25 | RRIRQRPPRLPRPRPRPAANPRP | 0.0666

Row | Sequence | shrunken log2 fold change
26 | RRIRQRPPRLPRPRPRPAAPPRP | 0.243
27 | RRIRQRPPRLPRPRPRPAAVPRP | -0.0726
28 | RRIRQRPPRLPRPRPRPADEPRP | -0.101
29 | RRIRQRPPRLPRPRPRPAENPRP | 0.0325
30 | RRIRQRPPRLPRPRPRPAFCPRP | 0.585
31 | RRIRQRPPRLPRPRPRPAGQPRP | -0.143
32 | RRIRQRPPRLPRPRPRPAHTPRP | 0.379
33 | RRIRQRPPRLPRPRPRPAITPRP | -0.114
34 | RRIRQRPPRLPRPRPRPAKDPRP | 0.0171
35 | RRIRQRPPRLPRPRPRPAKWPRP | -0.0192
36 | RRIRQRPPRLPRPRPRPAMVPRP | 0.206
37 | RRIRQRPPRLPRPRPRPAPLPRP | 0.451
38 | RRIRQRPPRLPRPRPRPAPPPRP | 0.702
39 | RRIRQRPPRLPRPRPRPAPWPRP | 0.548
40 | RRIRQRPPRLPRPRPRPAQHPRP | 0.189
41 | RRIRQRPPRLPRPRPRPAQKPRP | -0.0027
42 | RRIRQRPPRLPRPRPRPAVAPRP | 0.0726
43 | RRIRQRPPRLPRPRPRPAVNPRP | -0.0181
44 | RRIRQRPPRLPRPRPRPAWLPRP | -0.123
45 | RRIRQRPPRLPRPRPRPAWNPRP | -0.206
46 | RRIRQRPPRLPRPRPRPCDFPRP | 0.0344
47 | RRIRQRPPRLPRPRPRPCEKPRP | -0.00192
48 | RRIRQRPPRLPRPRPRPCENPRP | 0.0237
49 | RRIRQRPPRLPRPRPRPCFYPRP | -0.269
50 | RRIRQRPPRLPRPRPRPCIVPRP | -0.747

Row | Sequence | shrunken log2 fold change
51 | RRIRQRPPRLPRPRPRPCKGPRP | 0.00408
52 | RRIRQRPPRLPRPRPRPCMHPRP | -0.0431
53 | RRIRQRPPRLPRPRPRPCNSPRP | -0.0261
54 | RRIRQRPPRLPRPRPRPCPRPRP | -0.01
55 | RRIRQRPPRLPRPRPRPCQCPRP | -0.034
56 | RRIRQRPPRLPRPRPRPCQIPRP | -0.298
57 | RRIRQRPPRLPRPRPRPCRGPRP | 0.104
58 | RRIRQRPPRLPRPRPRPCRNPRP | -0.0117
59 | RRIRQRPPRLPRPRPRPCRWPRP | -0.0062
60 | RRIRQRPPRLPRPRPRPCSAPRP | -0.257
61 | RRIRQRPPRLPRPRPRPCSRPRP | 0.0758
62 | RRIRQRPPRLPRPRPRPCVIPRP | -0.409
63 | RRIRQRPPRLPRPRPRPCVPPRP | -0.0509
64 | RRIRQRPPRLPRPRPRPCVWPRP | 0.213
65 | RRIRQRPPRLPRPRPRPCYRPRP | -0.00251
66 | RRIRQRPPRLPRPRPRPDAYPRP | -0.228
67 | RRIRQRPPRLPRPRPRPDDLPRP | 0.0248
68 | RRIRQRPPRLPRPRPRPDDRPRP | -0.000777
69 | RRIRQRPPRLPRPRPRPDECPRP | 0.0568
70 | RRIRQRPPRLPRPRPRPDEGPRP | -0.106
71 | RRIRQRPPRLPRPRPRPDGHPRP | -0.0936
72 | RRIRQRPPRLPRPRPRPDGKPRP | 0.0269
73 | RRIRQRPPRLPRPRPRPDGLPRP | -0.0465
74 | RRIRQRPPRLPRPRPRPDHKPRP | -0.0609
75 | RRIRQRPPRLPRPRPRPDIGPRP | -0.0932

Row | Sequence | shrunken log2 fold change
76 | RRIRQRPPRLPRPRPRPDKCPRP | 0.272
77 | RRIRQRPPRLPRPRPRPDKDPRP | -0.0597
78 | RRIRQRPPRLPRPRPRPDMKPRP | 0.26
79 | RRIRQRPPRLPRPRPRPDMVPRP | -0.0075
80 | RRIRQRPPRLPRPRPRPDNQPRP | -0.037
81 | RRIRQRPPRLPRPRPRPDPCPRP | -0.243
82 | RRIRQRPPRLPRPRPRPDPWPRP | 0.161
83 | RRIRQRPPRLPRPRPRPDQLPRP | -0.263
84 | RRIRQRPPRLPRPRPRPDQRPRP | -0.00141
85 | RRIRQRPPRLPRPRPRPDQVPRP | -0.00133
86 | RRIRQRPPRLPRPRPRPDSEPRP | 0.138
87 | RRIRQRPPRLPRPRPRPDTLPRP | 0.016
88 | RRIRQRPPRLPRPRPRPDWCPRP | -0.229
89 | RRIRQRPPRLPRPRPRPDWMPRP | 0.0723
90 | RRIRQRPPRLPRPRPRPDWSPRP | -0.0861
91 | RRIRQRPPRLPRPRPRPDYIPRP | -0.0798
92 | RRIRQRPPRLPRPRPRPDYRPRP | -0.00448
93 | RRIRQRPPRLPRPRPRPEAEPRP | 0.302
94 | RRIRQRPPRLPRPRPRPEAFPRP | 0.127
95 | RRIRQRPPRLPRPRPRPEDYPRP | -0.0734
96 | RRIRQRPPRLPRPRPRPEFRPRP | 0.0728
97 | RRIRQRPPRLPRPRPRPEGGPRP | 0.161
98 | RRIRQRPPRLPRPRPRPEIGPRP | 0.0792
99 | RRIRQRPPRLPRPRPRPEILPRP | 0.00769
100 | RRIRQRPPRLPRPRPRPEKHPRP | -0.214

Row | Sequence | shrunken log2 fold change
101 | RRIRQRPPRLPRPRPRPEKTPRP | -0.0176
102 | RRIRQRPPRLPRPRPRPELIPRP | -0.017
103 | RRIRQRPPRLPRPRPRPEMGPRP | 0.223
104 | RRIRQRPPRLPRPRPRPEMHPRP | 0.393
105 | RRIRQRPPRLPRPRPRPENCPRP | -0.219
106 | RRIRQRPPRLPRPRPRPEPYPRP | 0.0808
107 | RRIRQRPPRLPRPRPRPEREPRP | 0.0841
108 | RRIRQRPPRLPRPRPRPETNPRP | 0.0137
109 | RRIRQRPPRLPRPRPRPETVPRP | -0.0886
110 | RRIRQRPPRLPRPRPRPEVRPRP | 0.0665
111 | RRIRQRPPRLPRPRPRPEWAPRP | 0.0739
112 | RRIRQRPPRLPRPRPRPEWGPRP | 0.125
113 | RRIRQRPPRLPRPRPRPEWRPRP | -0.00139
114 | RRIRQRPPRLPRPRPRPFCSPRP | 0.036
115 | RRIRQRPPRLPRPRPRPFDEPRP | -0.153
116 | RRIRQRPPRLPRPRPRPFDFPRP | -0.404
117 | RRIRQRPPRLPRPRPRPFDMPRP | -0.123
118 | RRIRQRPPRLPRPRPRPFEKPRP | -0.0519
119 | RRIRQRPPRLPRPRPRPFFTPRP | -0.343
120 | RRIRQRPPRLPRPRPRPFGVPRP | 0.0831
121 | RRIRQRPPRLPRPRPRPFGWPRP | -0.0154
122 | RRIRQRPPRLPRPRPRPFHCPRP | -0.192
123 | RRIRQRPPRLPRPRPRPFIAPRP | -0.277
124 | RRIRQRPPRLPRPRPRPFIMPRP | -1.46
125 | RRIRQRPPRLPRPRPRPFINPRP | -0.241

Row | Sequence | shrunken log2 fold change
126 | RRIRQRPPRLPRPRPRPFLVPRP | 0.000414
127 | RRIRQRPPRLPRPRPRPFNIPRP | 0.0348
128 | RRIRQRPPRLPRPRPRPFPDPRP | -0.108
129 | RRIRQRPPRLPRPRPRPFPQPRP | -0.0621
130 | RRIRQRPPRLPRPRPRPFPVPRP | 0.0568
131 | RRIRQRPPRLPRPRPRPFPWPRP | -0.0901
132 | RRIRQRPPRLPRPRPRPFQMPRP | -0.214
133 | RRIRQRPPRLPRPRPRPFQPPRP | 0.0592
134 | RRIRQRPPRLPRPRPRPFQTPRP | -0.01
135 | RRIRQRPPRLPRPRPRPFRAPRP | 0.0134
136 | RRIRQRPPRLPRPRPRPFRFPRP | 0.0421
137 | RRIRQRPPRLPRPRPRPFRKPRP | -0.101
138 | RRIRQRPPRLPRPRPRPFRRPRP | 0.0238
139 | RRIRQRPPRLPRPRPRPFTHPRP | -0.0618
140 | RRIRQRPPRLPRPRPRPFTLPRP | -0.0549
141 | RRIRQRPPRLPRPRPRPFVNPRP | -0.545
142 | RRIRQRPPRLPRPRPRPFVSPRP | -0.216
143 | RRIRQRPPRLPRPRPRPFWLPRP | 0.0473
144 | RRIRQRPPRLPRPRPRPFWYPRP | -0.171
145 | RRIRQRPPRLPRPRPRPFYDPRP | -0.208
146 | RRIRQRPPRLPRPRPRPGFNPRP | -0.119
147 | RRIRQRPPRLPRPRPRPGGFPRP | 0.0441
148 | RRIRQRPPRLPRPRPRPGGVPRP | 0.463
149 | RRIRQRPPRLPRPRPRPGHFPRP | -0.0162
150 | RRIRQRPPRLPRPRPRPGIQPRP | -0.056
